Source: the supplement of paper PMC10065799, “High-throughput profiling of sequence recognition by tyrosine kinases and SH2 domains using bacterial peptide display” (eLife, 2023)

Legend:
[1] = target: c-Src SH2; assay: SH2 binding enrichment of the phosphorylated peptide, bacterial display (enrichment ratio); higher = better substrate or ligand; peptides without Tyr show the background
[2] = target: Grb2 SH2 (UniProt P62993); assay: as above
[3] = target: SHP2-C SH2; assay: as above
[4] = test system: Fer (mouse); assay: phosphorylation enrichment, bacterial display (enrichment ratio); higher = better substrate or ligand; peptides without Tyr show the background
[5] = test system: c-Abl (mouse); assay: as above
[6] = target: EPHB1 (UniProt P54762); assay: as above
[7] = target: Hck (UniProt P08631); assay: as above
[8] = target: MERTK (UniProt Q12866); assay: as above
[9] = target: FGFR3 (UniProt P22607); assay: as above
[10] = target: EPHB2 (UniProt P29323); assay: as above
[11] = target: FGFR1 (UniProt P11362); assay: as above
[12] = target: Jak2 (UniProt O60674); assay: as above
[13] = target: Fes (UniProt P07332); assay: as above
[14] = test system: c-Src; assay: as above
[15] = target: Fyn (UniProt P06241); assay: as above
[16] = test system: AncSZ; assay: as above
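For SH2 binding enrichment of the phosphorylated peptide, bacterial display in this document: peptide library displayed on the E. coli surface as eCPX fusions, selected cells deep-sequenced, score is each peptide's frequency after selection divided by its frequency in the input.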
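For phosphorylation enrichment, bacterial display in this document: 11-residue human phosphosite peptides and single-mutation variants displayed on the E. coli surface, counted by deep sequencing, each peptide's frequency after selection divided by its frequency in the unselected input library; frequency after pTyr selection over input frequency; kinase dosed for 20-30% of maximal phosphorylation in three min.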

Chain of EPHB2 (P29323 whole entry, looked up): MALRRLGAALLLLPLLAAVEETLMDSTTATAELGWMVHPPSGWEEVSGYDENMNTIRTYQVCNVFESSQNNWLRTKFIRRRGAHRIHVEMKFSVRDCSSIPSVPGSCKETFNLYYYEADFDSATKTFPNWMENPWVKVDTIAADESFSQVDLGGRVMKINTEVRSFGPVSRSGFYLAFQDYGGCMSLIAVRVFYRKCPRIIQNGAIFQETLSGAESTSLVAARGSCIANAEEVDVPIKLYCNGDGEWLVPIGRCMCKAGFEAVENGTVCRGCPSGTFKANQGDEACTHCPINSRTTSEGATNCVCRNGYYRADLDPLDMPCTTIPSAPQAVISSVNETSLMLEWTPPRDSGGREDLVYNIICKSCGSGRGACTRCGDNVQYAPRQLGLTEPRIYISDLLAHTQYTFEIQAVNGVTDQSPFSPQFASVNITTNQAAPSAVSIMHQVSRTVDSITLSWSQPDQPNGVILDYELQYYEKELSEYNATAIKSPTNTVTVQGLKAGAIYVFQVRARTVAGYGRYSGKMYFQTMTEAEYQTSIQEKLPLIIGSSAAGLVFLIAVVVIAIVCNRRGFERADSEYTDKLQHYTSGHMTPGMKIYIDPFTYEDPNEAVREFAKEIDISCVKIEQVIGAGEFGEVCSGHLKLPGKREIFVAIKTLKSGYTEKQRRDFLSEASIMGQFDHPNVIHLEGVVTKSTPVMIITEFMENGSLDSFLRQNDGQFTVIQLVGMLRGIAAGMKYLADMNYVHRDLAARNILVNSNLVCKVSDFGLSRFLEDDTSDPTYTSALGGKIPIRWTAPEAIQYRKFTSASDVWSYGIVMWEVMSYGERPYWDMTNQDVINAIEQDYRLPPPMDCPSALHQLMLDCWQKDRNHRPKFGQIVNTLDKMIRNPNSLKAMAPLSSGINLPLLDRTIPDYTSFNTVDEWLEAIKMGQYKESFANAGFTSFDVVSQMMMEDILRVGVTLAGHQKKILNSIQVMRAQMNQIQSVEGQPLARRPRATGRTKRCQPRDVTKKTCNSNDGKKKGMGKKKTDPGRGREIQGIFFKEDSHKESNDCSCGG
Chain of MERTK (Q12866 whole entry, looked up): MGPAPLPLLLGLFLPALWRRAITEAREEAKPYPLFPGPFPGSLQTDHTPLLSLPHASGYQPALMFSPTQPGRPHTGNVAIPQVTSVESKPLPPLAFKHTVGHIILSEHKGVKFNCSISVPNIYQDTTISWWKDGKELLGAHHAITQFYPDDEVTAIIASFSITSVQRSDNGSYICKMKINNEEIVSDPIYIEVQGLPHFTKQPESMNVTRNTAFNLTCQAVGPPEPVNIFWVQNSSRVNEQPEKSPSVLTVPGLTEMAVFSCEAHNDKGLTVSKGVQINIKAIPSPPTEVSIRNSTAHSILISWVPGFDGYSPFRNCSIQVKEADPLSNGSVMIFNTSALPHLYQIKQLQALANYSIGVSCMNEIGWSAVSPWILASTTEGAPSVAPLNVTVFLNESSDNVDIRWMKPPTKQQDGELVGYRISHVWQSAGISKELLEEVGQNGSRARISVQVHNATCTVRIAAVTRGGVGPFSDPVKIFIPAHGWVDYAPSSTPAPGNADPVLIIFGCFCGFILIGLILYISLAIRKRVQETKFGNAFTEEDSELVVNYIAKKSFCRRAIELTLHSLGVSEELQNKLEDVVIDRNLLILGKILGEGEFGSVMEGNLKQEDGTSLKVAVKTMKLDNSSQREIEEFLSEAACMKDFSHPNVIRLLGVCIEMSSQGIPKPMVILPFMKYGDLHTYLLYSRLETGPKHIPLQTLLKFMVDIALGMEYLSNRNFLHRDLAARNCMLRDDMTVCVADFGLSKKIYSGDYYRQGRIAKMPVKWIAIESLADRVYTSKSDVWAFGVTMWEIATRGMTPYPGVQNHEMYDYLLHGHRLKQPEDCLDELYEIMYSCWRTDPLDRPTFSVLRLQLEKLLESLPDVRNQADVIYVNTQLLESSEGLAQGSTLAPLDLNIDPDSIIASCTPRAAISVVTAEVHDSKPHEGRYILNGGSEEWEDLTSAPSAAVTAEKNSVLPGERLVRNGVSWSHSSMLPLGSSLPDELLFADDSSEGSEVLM
Chain of Fes (P07332 whole entry, looked up): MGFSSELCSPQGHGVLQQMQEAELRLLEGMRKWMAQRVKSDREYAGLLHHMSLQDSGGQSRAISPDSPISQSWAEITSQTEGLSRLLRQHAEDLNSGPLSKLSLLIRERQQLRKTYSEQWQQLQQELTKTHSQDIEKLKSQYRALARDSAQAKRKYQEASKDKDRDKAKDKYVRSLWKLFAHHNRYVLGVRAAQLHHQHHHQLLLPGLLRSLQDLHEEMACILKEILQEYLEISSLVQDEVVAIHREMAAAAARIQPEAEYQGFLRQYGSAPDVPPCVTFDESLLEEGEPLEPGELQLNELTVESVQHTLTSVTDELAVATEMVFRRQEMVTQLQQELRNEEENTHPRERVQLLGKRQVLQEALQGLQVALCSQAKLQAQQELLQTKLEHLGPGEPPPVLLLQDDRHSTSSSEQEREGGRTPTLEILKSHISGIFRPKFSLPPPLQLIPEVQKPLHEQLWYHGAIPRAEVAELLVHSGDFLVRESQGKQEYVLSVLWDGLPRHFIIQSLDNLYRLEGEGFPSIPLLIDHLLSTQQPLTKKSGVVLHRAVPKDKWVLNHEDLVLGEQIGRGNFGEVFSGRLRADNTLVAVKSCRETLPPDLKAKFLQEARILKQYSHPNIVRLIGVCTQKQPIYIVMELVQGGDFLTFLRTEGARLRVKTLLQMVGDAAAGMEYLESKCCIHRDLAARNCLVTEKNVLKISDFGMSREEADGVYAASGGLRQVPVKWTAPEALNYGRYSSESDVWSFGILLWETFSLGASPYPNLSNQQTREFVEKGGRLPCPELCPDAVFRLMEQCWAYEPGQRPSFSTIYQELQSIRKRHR
Chain of EPHB1 (P54762 whole entry, looked up): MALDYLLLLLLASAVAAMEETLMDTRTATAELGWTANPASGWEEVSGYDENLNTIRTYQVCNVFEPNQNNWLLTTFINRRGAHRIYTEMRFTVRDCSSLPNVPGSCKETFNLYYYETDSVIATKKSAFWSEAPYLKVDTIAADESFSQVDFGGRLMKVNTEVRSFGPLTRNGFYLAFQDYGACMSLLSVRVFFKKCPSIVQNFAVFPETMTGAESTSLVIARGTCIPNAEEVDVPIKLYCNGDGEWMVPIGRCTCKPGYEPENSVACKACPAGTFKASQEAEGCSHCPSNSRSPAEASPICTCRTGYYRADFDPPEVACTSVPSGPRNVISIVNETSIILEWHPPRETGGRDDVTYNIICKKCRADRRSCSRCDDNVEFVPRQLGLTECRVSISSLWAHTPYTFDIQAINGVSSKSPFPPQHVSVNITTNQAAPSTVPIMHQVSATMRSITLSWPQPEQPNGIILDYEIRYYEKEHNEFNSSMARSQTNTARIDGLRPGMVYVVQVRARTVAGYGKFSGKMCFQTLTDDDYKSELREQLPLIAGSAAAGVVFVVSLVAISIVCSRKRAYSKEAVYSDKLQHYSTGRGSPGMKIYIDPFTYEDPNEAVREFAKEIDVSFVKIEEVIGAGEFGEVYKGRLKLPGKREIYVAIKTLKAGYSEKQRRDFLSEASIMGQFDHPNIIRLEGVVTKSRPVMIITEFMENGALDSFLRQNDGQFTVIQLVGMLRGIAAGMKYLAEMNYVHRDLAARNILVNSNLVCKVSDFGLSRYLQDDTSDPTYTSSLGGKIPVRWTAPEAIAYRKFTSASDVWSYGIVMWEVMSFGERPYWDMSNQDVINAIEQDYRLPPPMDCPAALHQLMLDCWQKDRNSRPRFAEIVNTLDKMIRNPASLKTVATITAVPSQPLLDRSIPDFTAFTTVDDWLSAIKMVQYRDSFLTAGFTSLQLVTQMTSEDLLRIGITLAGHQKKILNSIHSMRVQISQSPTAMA
Chain of Hck (P08631 whole entry, looked up): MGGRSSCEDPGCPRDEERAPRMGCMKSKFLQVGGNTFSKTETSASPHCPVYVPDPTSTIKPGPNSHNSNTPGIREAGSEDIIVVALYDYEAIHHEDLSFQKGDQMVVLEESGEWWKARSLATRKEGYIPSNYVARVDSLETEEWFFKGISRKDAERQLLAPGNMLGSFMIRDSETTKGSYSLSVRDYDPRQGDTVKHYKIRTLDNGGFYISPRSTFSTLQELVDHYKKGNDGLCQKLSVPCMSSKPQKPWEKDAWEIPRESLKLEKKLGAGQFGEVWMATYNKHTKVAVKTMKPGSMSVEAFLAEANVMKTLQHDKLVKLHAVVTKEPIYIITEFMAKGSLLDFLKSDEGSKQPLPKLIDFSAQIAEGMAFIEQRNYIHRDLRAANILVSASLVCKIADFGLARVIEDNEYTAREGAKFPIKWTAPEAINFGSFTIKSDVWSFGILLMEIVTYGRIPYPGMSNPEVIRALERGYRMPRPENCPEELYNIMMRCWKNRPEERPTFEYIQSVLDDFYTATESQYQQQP
Chain of Fyn (P06241 whole entry, looked up): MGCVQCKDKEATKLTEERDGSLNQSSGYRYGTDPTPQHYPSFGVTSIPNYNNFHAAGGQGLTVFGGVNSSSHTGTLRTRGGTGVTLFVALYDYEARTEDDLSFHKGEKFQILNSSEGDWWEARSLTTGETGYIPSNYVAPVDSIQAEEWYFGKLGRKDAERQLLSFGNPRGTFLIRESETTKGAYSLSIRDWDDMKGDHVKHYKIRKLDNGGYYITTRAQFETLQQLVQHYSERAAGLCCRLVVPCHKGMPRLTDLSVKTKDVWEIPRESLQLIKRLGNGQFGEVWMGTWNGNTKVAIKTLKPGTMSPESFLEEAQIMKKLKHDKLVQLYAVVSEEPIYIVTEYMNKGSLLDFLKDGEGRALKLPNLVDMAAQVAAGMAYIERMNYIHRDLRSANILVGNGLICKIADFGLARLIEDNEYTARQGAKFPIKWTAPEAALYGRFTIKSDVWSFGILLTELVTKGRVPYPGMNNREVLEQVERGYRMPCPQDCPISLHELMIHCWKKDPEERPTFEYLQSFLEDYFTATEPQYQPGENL

SH2 binding enrichment [1] | SH2 binding enrichment [2] | SH2 binding enrichment [3] | Sequence | phosphorylation enrichment [4] | phosphorylation enrichment [5] | phosphorylation enrichment [6] | phosphorylation enrichment [7] | phosphorylation enrichment [8] | phosphorylation enrichment [9] | phosphorylation enrichment [10] | phosphorylation enrichment [11] | phosphorylation enrichment [12] | phosphorylation enrichment [13] | phosphorylation enrichment [14] | phosphorylation enrichment [15] | phosphorylation enrichment [16]
0.827 | 1.28 | 1.07 | LHVKMYNFLRS [ADGRG7_Y760_R756H] | 1.11 | 2.26 | 0.831 | 0.625 | 0.85 | 0.94 | 0.778 | 0.714 | 1.69 | 1.89 | 0.711 | 0.615 | 1.97
0.503 | 0.944 | 0.715 | KPAFSYTSSST [SIM1_Y356] | 0.447 | 0.606 | 0.467 | 0.446 | 0.417 | 0.475 | 0.533 | 0.415 | 0.528 | 0.635 | 0.484 | 0.578 | 1.01
0.45 | 0.945 | 0.613 | DFTEAYNSKIK [CLK1_Y305_P307S_YF] | 0.465 | 0.795 | 0.721 | 0.526 | 0.464 | 0.65 | 0.622 | 0.592 | 0.908 | 1.02 | 0.56 | 0.512 | 0.899
0.433 | 0.803 | 0.641 | EKIANYKEGTY [CLRN1_Y171] | 0.552 | 0.76 | 0.573 | 0.489 | 0.41 | 0.449 | 0.389 | 0.45 | 0.654 | 0.704 | 0.468 | 0.546 | 0.671
0.624 | 0.77 | 0.797 | DTCPPYVLSQV [GJB4_Y237_G242V] | 1.2 | 0.668 | 0.685 | 0.606 | 0.432 | 0.776 | 0.635 | 0.475 | 0.969 | 1.11 | 0.606 | 0.573 | 1.01
0.845 | 0.789 | 0.684 | MSFDRYMAVCH [OR2A5_Y123_I126V_YF] | 0.558 | 0.931 | 0.858 | 0.638 | 0.567 | 0.738 | 0.838 | 0.532 | 0.927 | 1.1 | 0.473 | 0.585 | 1.09
0.486 | 0.813 | 0.769 | NPIGLYSAETL [LDB3_Y202] | 1.12 | 0.496 | 1.73 | 0.967 | 4.18 | 0.498 | 1.74 | 0.451 | 0.71 | 0.72 | 0.962 | 0.666 | 0.691
0.493 | 0.758 | 0.913 | KTSGNYLPVTG [WDR19_Y28_A30P] | 0.359 | 0.446 | 0.474 | 0.405 | 0.598 | 0.37 | 0.435 | 0.369 | 0.524 | 0.543 | 0.402 | 0.41 | 0.519
0.905 | 1.04 | 0.649 | GSRGKYSSGFH [ATM_Y332_R337H] | 0.409 | 0.579 | 0.417 | 0.391 | 0.452 | 0.605 | 0.3 | 0.452 | 0.439 | 0.535 | 0.45 | 0.421 | 0.464
0.807 | 0.824 | 0.674 | DVCKNYTEAKD [ALB_Y343_A344T] | 0.511 | 0.549 | 0.555 | 0.494 | 0.5 | 0.613 | 0.581 | 0.51 | 0.712 | 0.963 | 0.385 | 0.497 | 0.92

Further lines, the sequence ahead of its results:

Sequence | SH2 binding enrichment [1] | SH2 binding enrichment [2] | SH2 binding enrichment [3] | phosphorylation enrichment [4] | phosphorylation enrichment [5] | phosphorylation enrichment [6] | phosphorylation enrichment [7] | phosphorylation enrichment [8] | phosphorylation enrichment [9] | phosphorylation enrichment [10] | phosphorylation enrichment [11] | phosphorylation enrichment [12] | phosphorylation enrichment [13] | phosphorylation enrichment [14] | phosphorylation enrichment [15] | phosphorylation enrichment [16]
KLKRSYSSPDI [USP8_Y717] | 0.413 | 0.698 | 0.649 | 0.38 | 0.412 | 0.376 | 0.379 | 0.43 | 0.461 | 0.688 | 0.365 | 0.524 | 0.613 | 0.396 | 0.322 | 0.552
IGEVVYQWAVM [GRIN2A_Y502_R504W] | 0.532 | 0.845 | 0.61 | 7.77 | 1.57 | 0.89 | 1.1 | 0.904 | 1.15 | 0.598 | 1.03 | 1.17 | 1.48 | 1.47 | 1.16 | 2.06
VECHPYFTQPK [AKR1D1_Y199] | 0.444 | 0.765 | 0.637 | 0.421 | 0.617 | 0.525 | 0.515 | 0.371 | 0.709 | 0.517 | 0.591 | 0.819 | 1.01 | 0.779 | 0.559 | 0.938
SVTCTYSPALK [TP53_Y126_N131K] | 0.523 | 0.697 | 0.518 | 0.353 | 0.839 | 0.407 | 0.498 | 0.405 | 0.602 | 0.567 | 0.407 | 0.866 | 1.02 | 0.557 | 0.467 | 0.97
WQQQSYLDSGS [CTNNB1_Y30_I35S] | 0.481 | 0.733 | 0.582 | 0.675 | 0.56 | 0.436 | 0.45 | 0.397 | 0.536 | 0.528 | 0.561 | 0.581 | 0.741 | 0.363 | 0.423 | 0.781
PRAEWYRDDVL [MYOM2_Y317] | 0.585 | 0.802 | 0.637 | 0.767 | 0.879 | 0.959 | 0.586 | 0.681 | 0.818 | 0.725 | 0.507 | 1.11 | 1.46 | 0.546 | 0.572 | 1.31
TLLPDYEDEEE [ZNF830_Y159_S154T] | 0.635 | 1.06 | 0.815 | 0.788 | 0.846 | 0.925 | 0.709 | 0.546 | 0.938 | 0.962 | 0.683 | 1.1 | 1.28 | 0.62 | 0.605 | 1.64
PPSGEYFGQCG [TRIP6_Y275] | 0.791 | 1.19 | 0.829 | 0.824 | 1.58 | 1.39 | 0.764 | 0.573 | 1.06 | 0.953 | 1.23 | 1.52 | 1.37 | 0.771 | 0.552 | 1.58
TGDVQYRSSVR [FREM2_Y2158] | 0.433 | 1.02 | 0.631 | 0.385 | 0.459 | 0.292 | 0.357 | 0.398 | 0.397 | 0.423 | 0.468 | 0.408 | 0.534 | 0.357 | 0.331 | 0.529
PMDTYYDSTRG [DYNC2H1_Y2231] | 0.742 | 0.666 | 0.44 | 0.799 | 1.15 | 1.28 | 1.86 | 0.827 | 2.3 | 1.37 | 3.15 | 1.14 | 1.31 | 1.91 | 1.43 | 1.5
HLATEYVFSDF [PANX1_Y10_Q5H] | 0.576 | 0.755 | 0.884 | 0.788 | 0.863 | 0.808 | 0.661 | 0.639 | 1.23 | 1.04 | 1.67 | 1.17 | 1.39 | 1.28 | 0.935 | 2.12
GKSDPYHATTG [GJA1_Y247_S251T] | 0.416 | 0.771 | 0.778 | 0.38 | 0.476 | 0.287 | 0.413 | 0.319 | 0.409 | 0.254 | 0.374 | 0.41 | 0.506 | 0.361 | 0.345 | 0.396
YGSSSSGGAGG [RPA2_Y14_Y14S] | 0.395 | 0.711 | 0.612 | 0.437 | 0.317 | 0.304 | 0.359 | 0.355 | 0.347 | 0.461 | 0.403 | 0.392 | 0.535 | 0.337 | 0.389 | 0.604
PTTKTYLPHFD [HBA1_Y43_F44L] | 0.483 | 0.901 | 0.756 | 0.386 | 0.307 | 0.362 | 0.389 | 0.494 | 0.58 | 0.489 | 0.508 | 0.456 | 0.77 | 0.458 | 0.622 | 0.839
TSFQMYDKGLV [IARS2_Y231_F227S_YF] | 0.315 | 0.547 | 0.538 | 0.877 | 0.473 | 0.596 | 0.934 | 0.438 | 0.82 | 0.746 | 0.651 | 1.03 | 0.846 | 0.475 | 0.649 | 0.925
FAKTQYPDVYA [CRX_Y63] | 0.418 | 0.963 | 1 | 0.4 | 0.652 | 0.474 | 0.653 | 0.346 | 0.478 | 0.526 | 0.533 | 0.52 | 0.692 | 0.486 | 0.469 | 0.628
YLRTGYSIPYG [TGM1_Y370_V372I] | 9.77 | 1.01 | 2.11 | 0.384 | 0.702 | 0.451 | 0.39 | 1.21 | 0.574 | 0.461 | 0.554 | 0.804 | 0.677 | 0.457 | 0.375 | 0.777
RLVTRYIFNRE [HLA-DQB1_Y62_Y58L_YF] | 0.5 | 0.851 | 0.728 | 0.54 | 0.51 | 0.477 | 0.445 | 0.652 | 0.695 | 0.415 | 0.579 | 0.556 | 0.815 | 0.462 | 0.553 | 0.639
KNKLNYTLPQD [NRAP_Y523] | 0.648 | 0.944 | 0.834 | 0.39 | 0.468 | 0.409 | 0.406 | 0.347 | 0.451 | 0.436 | 0.419 | 0.567 | 0.523 | 0.35 | 0.372 | 0.584
DSDTDYGSGYP [RNASEH2A_Y206_L202S] | 0.442 | 0.688 | 0.405 | 0.646 | 1.01 | 0.708 | 0.699 | 0.575 | 0.899 | 0.573 | 0.647 | 1.43 | 1.55 | 0.689 | 0.677 | 1.36
TGILLYGLASR [QARS1_Y57] | 0.497 | 0.855 | 0.803 | 1.46 | 0.756 | 0.964 | 1.22 | 1.79 | 0.692 | 1.38 | 0.529 | 0.937 | 1.16 | 0.765 | 0.578 | 0.885
PQQLWYTHEKK [UBTF_Y207] | 0.833 | 1.2 | 0.812 | 0.339 | 0.499 | 0.58 | 0.496 | 0.361 | 0.481 | 0.327 | 0.516 | 0.802 | 0.792 | 0.473 | 0.409 | 0.652
GSTLSYFGLAT [P2RX7_Y343_A348T] | 0.595 | 0.893 | 0.751 | 0.545 | 0.998 | 0.635 | 0.687 | 0.637 | 1.36 | 0.5 | 1.36 | 5.4 | 0.912 | 0.595 | 0.639 | 1.09
